Data reported in article PMC3121528 (The Journal of Biological Chemistry, 2011).

Tests used:
[1] = biological target: FLAG-tagged B14 F130K (vaccinia virus strain Western Reserve) (UniProt P24772); test: co-IP
SEC-MALS = biological target: the molecule itself; test: SEC-MALS
[2] = biological target: FLAG-tagged B14 Y35E (vaccinia virus strain Western Reserve), P24772; test: co-IP; settings: remark: other sources report otherwise

Work on “N-terminally HA-tagged IκB kinase β (IKKβ) (from UniProt O14920 1-756) (enzyme)” yielded a co-precipitated IKKβ relative to wild-type B14 (% of wild-type B14) [1] of 1.

B1: N-terminally His6-tagged wild-type B14 (vaccinia virus strain Western Reserve) (natural protein)
chain: MTANFSTHVFSPQHCGCDRLTSIDDVRQCLTEYIYWSSYAYRNRQCAGQLYSTLLSFRDDAELVFIDIRELVKNMPWDDVKDCAEIIRCYIPDEQKTIREISAIIGLCAYAATYWGGEDHPTSNSLNALFVMLEMLNYVDYNIIFRRMN
With B1 the Kd (SEC-MALS) was 20.6 ± 0.9 µM and the “stoichiometry N” value (SEC-MALS) was 2.

B2: N-terminally HA-tagged IκB kinase β (IKKβ), O14920 1-756 (enzyme)
chain: MSWSPSLTTQTCGAWEMKERLGTGGFGNVIRWHNQETGEQIAIKQCRQELSPRNRERWCLEIQIMRRLTHPNVVAARDVPEGMQNLAPNDLPLLAMEYCQGGDLRKYLNQFENCCGLREGAILTLLSDIASALRYLHENRIIHRDLKPENIVLQQGEQRLIHKIIDLGYAKELDQGSLCTSFVGTLQYLAPELLEQQKYTVTVDYWSFGTLAFECITGFRPFLPNWQPVQWHSKVRQKSEVDIVVSEDLNGTVKFSSSLPYPNNLNSVLAERLEKWLQLMLMWHPRQRGTDPTYGPNGCFKALDDILNLKLVHILNMVTGTIHTYPVTEDESLQSLKARIQQDTGIPEEDQELLQEAGLALIPDKPATQCISDGKLNEGHTLDMDLVFLFDNSKITYETQISPRPQPESVSCILQEPKRNLAFFQLRKVWGQVWHSIQTLKEDCNRLQQGQRAAMMNLLRNNSCLSKMKNSMASMSQQLKAKLDFFKTSIQIDLEKYSEQTEFGITSDKLLLAWREMEQAVELCGRENEVKLLVERMMALQTDIVDLQRSPMGRKQGGTLDDLEEQARELYRRLREKPRDQRTEGDSQEMVRLLLQAIQSFEKKVRVIYTQLSKTVVCKQKALELLPKVEEVVSLMNEDEKTVVRLQEKRQKELWNLLKIACSKVRGPVSGSPDSMNASRLSQPGQLMSQPSTASNSLPEPAKKSEELVAEAHNLCTLLENAIQDTVREQDQSFTALDWSWLQTEEEEHSCLEQAS
B2 was tested, and the co-precipitated IKKβ relative to wild-type B14 (fold of wild-type B14) [2] was 0.5.
